In test [1] the target is human complement component C1q (human) (UniProt P02745). Nature of the test: ProteOn XPR36 SPR, antibody immobilised, C1q as analyte, equilibrium model.
The target of test [2] is human Fc gamma receptors (FcγR) (human). Nature of the test: ProteOn XPR36 SPR, His-tagged receptors captured, antibody as analyte, 25 °C, equilibrium model.

human complement component C1q (human), sequence (P02745 23-245 limits assumed, chain 1 of 3): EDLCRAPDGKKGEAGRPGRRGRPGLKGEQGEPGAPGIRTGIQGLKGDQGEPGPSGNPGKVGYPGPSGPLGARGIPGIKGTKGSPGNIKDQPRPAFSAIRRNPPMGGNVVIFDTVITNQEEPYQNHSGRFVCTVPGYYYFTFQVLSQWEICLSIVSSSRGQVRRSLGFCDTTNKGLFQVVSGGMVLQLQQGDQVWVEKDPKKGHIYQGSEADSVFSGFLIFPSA
human complement component C1q (human), sequence (P02746 28-253 limits assumed, chain 2 of 3, further chain): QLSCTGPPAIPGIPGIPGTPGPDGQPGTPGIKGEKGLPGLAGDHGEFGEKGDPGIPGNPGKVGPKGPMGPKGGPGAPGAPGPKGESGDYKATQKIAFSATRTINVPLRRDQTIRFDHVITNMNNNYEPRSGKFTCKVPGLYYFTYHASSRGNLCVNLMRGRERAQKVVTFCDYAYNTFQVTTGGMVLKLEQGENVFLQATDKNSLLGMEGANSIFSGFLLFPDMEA
human complement component C1q (human), sequence (P02747 29-245 limits assumed, chain 3 of 3, further chain): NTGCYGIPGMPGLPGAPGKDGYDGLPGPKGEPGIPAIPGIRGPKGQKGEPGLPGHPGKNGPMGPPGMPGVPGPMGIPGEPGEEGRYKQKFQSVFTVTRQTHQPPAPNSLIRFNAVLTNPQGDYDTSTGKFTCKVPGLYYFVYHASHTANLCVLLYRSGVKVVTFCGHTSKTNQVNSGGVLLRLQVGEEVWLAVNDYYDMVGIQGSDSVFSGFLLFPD

“IgG1 wildtype isotype control (antibody)”: the equilibrium dissociation constant (Kd) in test [1] was 465 nM. YTE containing control antibody gave a fold lower affinity than the human IgG1 wild type control in test [2] of 1.5 fold.

The term Kd denotes the free concentration of one partner at which half of the binding sites on the other are occupied at equilibrium, for simple one-to-one binding. Lower therefore signals higher affinity.

(Values after patent US20210017269A1.)
